# In article PMC12175907 (Science Advances, 2025):
# Assays:
# shrews [1] = assay: emesis, semaglutide dose-response, shrews; format: in vivo, Suncus murinus; conditions: for animals exhibiting emesis / emesis, dose dependence: 120 min; for animals exhibiting emesis: n = 9; for latency to first emetic episode: average of shrews that exhibited emesis, ± SEM; for emesis, dose dependence: 10, 50, 100 and 500 nmol/kg ip
# Source text: (§1) Adult male shrews (S. murinus) weighing ~50 to 80 g (n = 84 total) were bred and maintained in the De Jonghe Lab (University of Pennsylvania). These animals were offspring from a colony previously maintained at the University of Pittsburgh Cancer Institute (C. Horn); a Taiwanese strain was derived from stock originally supplied by the Chinese University of Hong Kong. Shrews were singly housed in plastic cages (37.3 cm by 23.4 cm by 14 cm, Innovive) under a 12-hour/12-hour light/dark cycle in a temperature-controlled and humidity-controlled environment. Animal were fed ad libitum with a mixture of feline (75%, Laboratory Feline Diet 5003, Lab Diet) and mink food (25%, High Density Ferret Diet 5LI4, Lab Diet) and had ad libitum access to tap water except where noted.
# To assess the emetogenic effects of semaglutide treatment, shrews (n = 9) were habituated to intraperitoneal injections and to clear plastic observation chambers (23.5 cm by 15.25 cm by 17.8 cm) for two consecutive days prior to experimentation. The animals were injected intraperitoneally with semaglutide (10, 50, 100, and 500 nmol/kg) or vehicle and then video recorded (Vixia HF-R62, Canon) for 120 min. After 120 min, the animals were returned to their cages. Treatment rounds were conducted within-subject and separated by 7 days. Analysis of emetic episodes was measured by a trained observer blinded to treatment groups. Emetic episodes were characterized by strong rhythmic abdominal contractions associated with either oral expulsion from the GI tract (i.e., vomiting) or without the passage of materials (i.e., retching). Latency to the first emetic episode, the total number of emetic episodes, and the number of emetic episodes per minute were quantified.
# rats = assay: food and kaolin consumption and body weight in rats (semaglutide, tirzepatide); format: in vivo, Sprague-Dawley rat
# Source text: Adult male Sprague-Dawley rats (Charles River) weighing ~250 to 270 g (n = 45) at arrival were housed under a 12-hour/12-hour light/dark cycle in a temperature-controlled and humidity-controlled vivarium. Rats were individually housed in hanging wire-bottom cage with ad libitum access to chow diet (Purina Lab Diet 5001) or, when noted, to high-fat/high-sugar diet (60% fat diet, 12492, Research Diets) and tap water and had ad libitum access to kaolin pellets (Research Diets, K50001). Rats were exposed to kaolin for at least 5 days prior to measuring kaolin consumption in pica testing. Kaolin intake and food consumption were measured simultaneously as the presence of kaolin in the cage, and its subsequent ingestion, has usually negligible effects on the hypophagic and body weight–lowering effects of the treatments.
# (§2) GIPFA-085 (GIP-085), tirzepatide, and GLP-140 were designed and produced by Eli Lilly and Company. GIP-085, GLP-140, and semaglutide (Cayman Chemical) were dissolved in 40 mM tris-HCl buffer (pH 8) and 0.02% Tween 80. For the study in mice, all drugs were injected subcutaneously at a volume of 5 ml/kg of body weight. In rats, all drugs were injected intraperitoneally, at a volume of 1 ml/kg of body weight, except when noted. In shrews, all drugs were injected intraperitoneally at a volume of 10 ml/kg of body weight.
# In two separate cohorts of rats (n = 10 per group, body weight ~ 460 ± 9 g), food consumption, kaolin intake, and body weight were measured after an intraperitoneal administration of vehicle, semaglutide (10 and 100 nmol/kg), or tirzepatide (10 and 100 nmol/kg), respectively. Food and kaolin intake were measured at 3, 6, 24, and 48 hours postinjection, and body weight was measured at 0, 24, and 48 hours. For each drug, a within-subject paradigm was used, with each round of injections separated by 7 days.
# DIO GIPR KO mice = assay: chronic treatment, food intake and body weight, DIO GIPR KO mice; format: in vivo, mouse; conditions: inferred from GIPR KO DIO mice
# Source text: DIO adult male C57BL/6 mice (Taconic) C57BL/6 (n = 23, weighing ~43 g at arrival), GLP-1R KO (germline knockout line: 11549, n = 24, weighing ~38 g at arrival), and GIPR KO mice (germline knockout line: 2886, n = 24, weighing ~35 g at arrival) were used. Upon arrival, mice were individually housed and continued to be fed ad libitum on high-fat/high-sugar diet (60% fat diet, 12492, Research Diets).
# as §2
# C57BL/6 wild-type (n = 23), GLP-1R KO (n = 24), and GIPR KO mice (n = 24) received daily subcutaneous administration of GIP-085 (300 nmol/kg), semaglutide (3 nmol/kg), GIP-085/semaglutide combo, or vehicle for 16 days. Food intake and body weight were manually measured daily. […] Body composition of mice was determined using quantitative nuclear magnetic resonance analysis (ECHO MRI, 3-1 Composition Analyzer; Echo Medical Systems). […]
# shrews [2] = assay: food intake and body weight, semaglutide, GIP-085 and combo, shrews; format: in vivo, Suncus murinus; conditions: semaglutide alone, 500 nmol/kg ip; n = 8
# Source text: as §1
# First, we compared the effects of semaglutide (500 nmol/kg), GIP-085 (300 nmol/kg), GIP-085/semaglutide, or vehicle on food intake and body weight in the same animals (n = 8, ~54 ± 2 g) using in a within-subject, counterbalanced design. This experiment was conducted as described above. Each treatment was 7 days apart.
# shrews [3] = assay: emesis, semaglutide, GIP-085 and combo, shrews; format: in vivo, Suncus murinus; conditions: semaglutide 500 nmol/kg ip; 120 min; n = 10
# Source text: as §1
# We then evaluated the emetogenic actions of semaglutide (500 nmol/kg), GIP-085 (300 nmol/kg), GIP-085/semaglutide, or vehicle in a different cohort of shrews (n = 10). The animals were habituated to the experimental conditions as described above, injected intraperitoneally with semaglutide ([…]), GIP-085 (300 nmol/kg), GIP-085/semaglutide, or vehicle and then video-recorded (Vixia HF-R62, Canon) for 120 min. After 120 min, the animals were returned to their cages. Treatments were separated by 7 days. Emesis parameters were quantified as described above.
# [4] = 100 nmol/kg ip, n = 10 to 20 per group
# [5] = 10 and 100 nmol/kg ip, n = 10 per group, vs vehicle
substance,measurement,setting,value
semaglutide,animals exhibiting emesis,shrews [1]; 100 nmol/kg ip,Twenty-two
same,latency to first emetic episode,shrews [1]; 100 nmol/kg ip,63 ± 14 min
same,animals exhibiting emesis,shrews [1]; 500 nmol/kg ip,67%
same,latency to first emetic episode,shrews [1]; 500 nmol/kg ip,58 ± 6 min
same,"emesis, dose dependence",shrews [1],dose-dependently induced emesis
same,"emesis, dose dependence",shrews [1]; listed as Semaglutide,causes emesis in a dose-related manner
same,kaolin intake,"rats; 100 nmol/kg ip, n = 10 per group, vs vehicle","causes significant malaise (i.e., kaolin intake)"
same,"hypophagic responses, semaglutide vs tirzepatide",rats; [4],comparable hypophagic responses
same,"kaolin consumption, semaglutide vs tirzepatide",rats; [4],significantly higher than that caused by tirzepatide
same,"kaolin consumption, semaglutide vs tirzepatide","rats; 100 nmol/kg ip, n = 10 to 20 per group, listed as Semaglutide",induces higher kaolin consumption than tirzepatide treatment
same,body weight,rats; [5],causes body weight loss in a dose-dependent manner
same,food intake,rats; [5],dose-dependently suppresses food intake
same,cross-reactivity at the GIPR,DIO GIPR KO mice,lack of cross-reactivity
same,body weight,shrews [2],body weight loss
same,food intake,shrews [2],induced anorexia
same,shrews that experienced emesis,shrews [3],60%
